Experimental data taken from the supplement of paper PMC10065799, “High-throughput profiling of sequence recognition by tyrosine kinases and SH2 domains using bacterial peptide display” (eLife, 2023).

How the values were obtained:
AncSZ = test: phosphorylation enrichment, bacterial display (enrichment ratio); higher = better substrate or ligand; peptides without Tyr show the background
EPHB1 = EPHB1 (UniProt P54762); test: as above
EPHB2 = EPHB2 (UniProt P29323); test: as above
FGFR1 = FGFR1 (UniProt P11362); test: as above
FGFR3 = FGFR3 (UniProt P22607); test: as above
Fer (mouse) = test: as above
Fes = Fes (UniProt P07332); test: as above
Sequence of Fes (P07332 whole entry, looked up): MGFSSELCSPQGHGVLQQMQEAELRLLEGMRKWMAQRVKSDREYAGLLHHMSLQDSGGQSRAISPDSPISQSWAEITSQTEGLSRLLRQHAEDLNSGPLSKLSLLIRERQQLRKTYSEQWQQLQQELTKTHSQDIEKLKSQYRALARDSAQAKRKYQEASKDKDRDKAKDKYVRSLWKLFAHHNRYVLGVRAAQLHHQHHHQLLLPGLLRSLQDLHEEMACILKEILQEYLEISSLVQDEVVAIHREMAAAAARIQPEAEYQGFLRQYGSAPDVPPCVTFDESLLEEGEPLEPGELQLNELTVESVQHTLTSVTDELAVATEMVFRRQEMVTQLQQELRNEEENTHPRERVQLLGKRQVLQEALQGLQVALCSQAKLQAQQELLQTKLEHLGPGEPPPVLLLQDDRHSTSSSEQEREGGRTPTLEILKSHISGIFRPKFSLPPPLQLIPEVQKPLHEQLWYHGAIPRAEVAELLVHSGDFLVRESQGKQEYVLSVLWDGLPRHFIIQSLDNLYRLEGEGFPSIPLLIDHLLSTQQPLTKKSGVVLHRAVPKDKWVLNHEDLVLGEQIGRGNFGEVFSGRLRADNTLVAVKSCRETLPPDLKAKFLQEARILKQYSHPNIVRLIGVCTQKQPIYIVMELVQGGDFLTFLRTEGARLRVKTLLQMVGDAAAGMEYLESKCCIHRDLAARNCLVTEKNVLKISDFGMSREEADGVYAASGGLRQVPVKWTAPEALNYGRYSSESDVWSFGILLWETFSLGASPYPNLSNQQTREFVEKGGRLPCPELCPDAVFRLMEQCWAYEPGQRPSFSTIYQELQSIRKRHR

Fyn = Fyn (UniProt P06241); test: as above
Hck = Hck (UniProt P08631); test: as above
Sequence of Hck (P08631 whole entry, looked up): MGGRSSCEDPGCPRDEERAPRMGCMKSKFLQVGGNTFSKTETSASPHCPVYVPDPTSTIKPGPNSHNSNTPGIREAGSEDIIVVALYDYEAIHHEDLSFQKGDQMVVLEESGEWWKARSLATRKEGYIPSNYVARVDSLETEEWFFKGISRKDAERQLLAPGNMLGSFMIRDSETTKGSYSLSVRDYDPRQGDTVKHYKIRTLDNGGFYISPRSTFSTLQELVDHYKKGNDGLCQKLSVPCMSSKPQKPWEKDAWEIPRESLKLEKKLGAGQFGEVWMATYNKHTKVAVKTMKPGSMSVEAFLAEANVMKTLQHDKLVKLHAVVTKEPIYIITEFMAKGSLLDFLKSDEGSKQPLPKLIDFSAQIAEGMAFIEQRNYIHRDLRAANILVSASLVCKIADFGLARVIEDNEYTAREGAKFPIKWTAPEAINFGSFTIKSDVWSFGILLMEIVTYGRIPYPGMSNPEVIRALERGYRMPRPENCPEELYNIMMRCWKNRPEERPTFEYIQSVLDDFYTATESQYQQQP

Jak2 = Jak2 (UniProt O60674); test: as above
Sequence of Jak2 (O60674 whole entry, looked up): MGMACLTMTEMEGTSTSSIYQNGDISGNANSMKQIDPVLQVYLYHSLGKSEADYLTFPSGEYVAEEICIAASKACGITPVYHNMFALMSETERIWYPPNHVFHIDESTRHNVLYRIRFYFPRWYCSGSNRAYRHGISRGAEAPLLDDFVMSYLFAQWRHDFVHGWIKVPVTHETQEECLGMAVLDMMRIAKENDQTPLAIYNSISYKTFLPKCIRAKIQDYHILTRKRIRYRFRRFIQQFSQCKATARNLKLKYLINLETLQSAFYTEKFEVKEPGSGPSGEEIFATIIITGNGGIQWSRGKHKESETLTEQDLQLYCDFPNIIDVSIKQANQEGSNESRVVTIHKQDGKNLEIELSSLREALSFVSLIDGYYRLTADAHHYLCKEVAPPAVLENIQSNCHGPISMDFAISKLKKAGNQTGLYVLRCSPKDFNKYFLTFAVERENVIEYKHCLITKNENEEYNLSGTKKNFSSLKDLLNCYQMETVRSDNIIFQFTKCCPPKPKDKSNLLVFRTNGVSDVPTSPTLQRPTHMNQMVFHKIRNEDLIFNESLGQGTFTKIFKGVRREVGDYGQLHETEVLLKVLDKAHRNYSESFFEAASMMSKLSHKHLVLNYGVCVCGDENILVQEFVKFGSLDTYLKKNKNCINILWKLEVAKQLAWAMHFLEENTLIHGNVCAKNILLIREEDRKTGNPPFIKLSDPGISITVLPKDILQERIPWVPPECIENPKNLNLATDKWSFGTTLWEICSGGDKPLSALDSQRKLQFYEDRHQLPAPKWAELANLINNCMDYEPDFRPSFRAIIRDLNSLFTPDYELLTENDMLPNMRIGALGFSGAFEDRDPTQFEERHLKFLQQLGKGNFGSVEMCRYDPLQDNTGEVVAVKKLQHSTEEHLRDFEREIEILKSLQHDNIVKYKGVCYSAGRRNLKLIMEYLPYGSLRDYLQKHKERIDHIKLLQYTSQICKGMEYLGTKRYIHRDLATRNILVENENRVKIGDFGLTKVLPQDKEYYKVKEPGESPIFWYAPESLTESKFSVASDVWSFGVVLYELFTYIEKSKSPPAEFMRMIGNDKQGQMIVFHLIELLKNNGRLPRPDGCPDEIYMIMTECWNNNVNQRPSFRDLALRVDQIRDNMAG

MERTK = MERTK (UniProt Q12866); test: as above
Sequence of MERTK (Q12866 whole entry, looked up): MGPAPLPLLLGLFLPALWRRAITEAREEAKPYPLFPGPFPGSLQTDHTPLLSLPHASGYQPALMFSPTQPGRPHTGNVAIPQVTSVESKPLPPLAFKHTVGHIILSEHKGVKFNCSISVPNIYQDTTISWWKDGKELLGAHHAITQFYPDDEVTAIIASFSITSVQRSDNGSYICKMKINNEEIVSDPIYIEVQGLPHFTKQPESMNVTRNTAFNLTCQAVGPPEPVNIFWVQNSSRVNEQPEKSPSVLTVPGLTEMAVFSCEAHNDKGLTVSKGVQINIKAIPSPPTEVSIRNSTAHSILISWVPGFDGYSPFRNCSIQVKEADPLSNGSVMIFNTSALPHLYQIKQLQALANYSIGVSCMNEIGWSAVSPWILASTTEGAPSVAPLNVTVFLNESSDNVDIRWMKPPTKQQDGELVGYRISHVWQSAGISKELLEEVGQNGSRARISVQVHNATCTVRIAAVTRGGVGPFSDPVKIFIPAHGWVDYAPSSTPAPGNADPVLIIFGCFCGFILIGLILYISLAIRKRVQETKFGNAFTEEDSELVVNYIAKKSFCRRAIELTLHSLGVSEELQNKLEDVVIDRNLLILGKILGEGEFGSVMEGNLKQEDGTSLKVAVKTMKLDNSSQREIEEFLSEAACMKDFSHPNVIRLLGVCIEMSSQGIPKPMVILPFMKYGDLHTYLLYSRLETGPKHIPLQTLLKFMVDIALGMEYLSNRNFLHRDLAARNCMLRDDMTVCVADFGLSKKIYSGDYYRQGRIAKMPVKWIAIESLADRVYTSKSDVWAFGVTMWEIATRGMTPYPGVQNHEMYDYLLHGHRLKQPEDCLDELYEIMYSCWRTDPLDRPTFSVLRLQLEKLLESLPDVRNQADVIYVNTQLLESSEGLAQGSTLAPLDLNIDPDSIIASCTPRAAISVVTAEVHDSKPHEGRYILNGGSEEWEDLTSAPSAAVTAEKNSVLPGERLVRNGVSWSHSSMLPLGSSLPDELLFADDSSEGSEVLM

c-Abl (mouse) = test: as above
c-Src = test: as above
Grb2 SH2 = Grb2 SH2 (UniProt P62993); test: SH2 binding enrichment of the phosphorylated peptide, bacterial display (enrichment ratio); higher = better substrate or ligand; peptides without Tyr show the background
Sequence of Grb2 SH2 (P62993 whole entry, looked up): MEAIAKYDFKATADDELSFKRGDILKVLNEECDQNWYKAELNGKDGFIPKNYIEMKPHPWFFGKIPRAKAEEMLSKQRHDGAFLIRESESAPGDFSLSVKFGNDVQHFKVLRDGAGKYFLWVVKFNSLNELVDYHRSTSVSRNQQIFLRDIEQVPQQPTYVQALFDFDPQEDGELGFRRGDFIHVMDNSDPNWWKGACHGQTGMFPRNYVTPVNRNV

SHP2-C SH2 = test: as above
c-Src SH2 = test: as above
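For SH2 binding enrichment of the phosphorylated peptide, bacterial display in this document: peptide library displayed on the E. coli surface as eCPX fusions, selected cells deep-sequenced, score is each peptide's frequency after selection divided by its frequency in the input.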
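For phosphorylation enrichment, bacterial display in this document: 11-residue human phosphosite peptides and single-mutation variants displayed on the E. coli surface, counted by deep sequencing, each peptide's frequency after selection divided by its frequency in the unselected input library; frequency after pTyr selection over input frequency; kinase dosed for 20-30% of maximal phosphorylation in three min.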

Sequence of EPHB1 (P54762 whole entry, looked up): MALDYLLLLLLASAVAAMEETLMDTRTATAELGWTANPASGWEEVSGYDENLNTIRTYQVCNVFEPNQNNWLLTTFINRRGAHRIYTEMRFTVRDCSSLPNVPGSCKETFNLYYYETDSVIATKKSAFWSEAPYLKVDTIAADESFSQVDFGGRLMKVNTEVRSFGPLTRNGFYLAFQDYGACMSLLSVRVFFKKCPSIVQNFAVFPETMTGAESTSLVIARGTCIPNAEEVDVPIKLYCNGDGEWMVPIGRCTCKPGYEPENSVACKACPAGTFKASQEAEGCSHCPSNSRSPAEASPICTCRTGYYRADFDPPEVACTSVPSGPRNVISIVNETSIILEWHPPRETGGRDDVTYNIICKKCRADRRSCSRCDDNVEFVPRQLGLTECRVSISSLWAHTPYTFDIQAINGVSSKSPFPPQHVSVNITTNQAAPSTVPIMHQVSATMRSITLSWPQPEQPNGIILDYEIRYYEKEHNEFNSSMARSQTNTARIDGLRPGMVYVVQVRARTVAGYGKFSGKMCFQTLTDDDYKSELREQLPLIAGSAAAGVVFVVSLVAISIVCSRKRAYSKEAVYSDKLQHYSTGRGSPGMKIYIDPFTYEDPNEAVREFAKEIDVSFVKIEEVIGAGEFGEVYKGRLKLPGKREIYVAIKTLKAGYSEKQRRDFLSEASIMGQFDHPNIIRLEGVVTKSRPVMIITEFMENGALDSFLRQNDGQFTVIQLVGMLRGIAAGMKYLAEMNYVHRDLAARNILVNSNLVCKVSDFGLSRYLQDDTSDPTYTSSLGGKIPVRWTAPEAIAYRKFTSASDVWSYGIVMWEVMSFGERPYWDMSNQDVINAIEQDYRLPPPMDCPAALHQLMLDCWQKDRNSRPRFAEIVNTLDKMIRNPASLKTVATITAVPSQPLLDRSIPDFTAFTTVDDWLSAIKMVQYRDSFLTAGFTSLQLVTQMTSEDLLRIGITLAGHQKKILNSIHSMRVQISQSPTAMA

Row | Sequence | phosphorylation enrichment (AncSZ) | phosphorylation enrichment (EPHB1) | phosphorylation enrichment (EPHB2) | phosphorylation enrichment (FGFR1) | phosphorylation enrichment (FGFR3) | phosphorylation enrichment (Fer (mouse)) | phosphorylation enrichment (Fes) | phosphorylation enrichment (Fyn) | phosphorylation enrichment (Hck) | phosphorylation enrichment (Jak2) | phosphorylation enrichment (MERTK) | phosphorylation enrichment (c-Abl (mouse)) | phosphorylation enrichment (c-Src) | SH2 binding enrichment (Grb2 SH2) | SH2 binding enrichment (SHP2-C SH2) | SH2 binding enrichment (c-Src SH2)
1 | KDHPDYKFQAR [SOX10_Y171_P175A_YF] | 0.757 | 0.409 | 0.408 | 0.466 | 0.489 | 0.485 | 0.658 | 0.458 | 0.482 | 0.559 | 0.405 | 0.626 | 0.489 | 0.835 | 0.813 | 0.516
2 | KDKLPYPYDDP [GPX2_Y125] | 1 | 0.599 | 0.487 | 0.562 | 0.655 | 0.455 | 1.17 | 0.414 | 0.435 | 1.04 | 0.42 | 0.584 | 0.486 | 0.889 | 0.757 | 1.67
3 | KDQPDYKYQPR [SOX9_Y172_H169Q] | 0.705 | 0.437 | 0.415 | 0.431 | 0.557 | 0.491 | 0.643 | 0.446 | 0.378 | 0.617 | 0.415 | 0.519 | 0.396 | 0.977 | 0.775 | 0.493
4 | KEKLCYVALDF [ACTA1_Y220] | 1.26 | 0.737 | 0.676 | 2.4 | 2.15 | 1.29 | 1.17 | 1.03 | 1.27 | 2.68 | 4.72 | 0.877 | 1.81 | 0.727 | 1.04 | 0.46
5 | KFMVGYEMLAK [GALT_Y339_Q344K] | 0.914 | 0.477 | 0.604 | 0.776 | 0.631 | 0.349 | 1.03 | 0.507 | 0.586 | 0.698 | 0.407 | 0.51 | 0.406 | 0.867 | 0.544 | 1.7
6 | KFVKMYDNHQL [MYO9A_Y203_YF] | 0.586 | 0.442 | 0.482 | 0.418 | 0.512 | 0.458 | 0.572 | 0.377 | 0.424 | 0.402 | 0.532 | 0.438 | 0.378 | 0.79 | 0.502 | 0.891
7 | KGEDFYCVTFH [FHL1_Y149_C153Y_YF] | 1.48 | 0.825 | 0.891 | 0.952 | 1.12 | 1.54 | 1.48 | 1.78 | 1.19 | 1.21 | 2.82 | 0.895 | 1.47 | 1.03 | 0.799 | 0.515
8 | KGSEGYLAAIF [NF1_Y2503_T2507I_YF] | 0.683 | 0.54 | 0.411 | 0.433 | 0.537 | 0.432 | 0.83 | 0.421 | 0.398 | 0.815 | 0.422 | 0.61 | 0.421 | 0.769 | 0.612 | 0.428
9 | KILGRYFETSS [PAX2_Y72_G76S_YF] | 0.648 | 0.424 | 0.406 | 0.469 | 0.633 | 0.432 | 0.694 | 0.374 | 0.508 | 0.706 | 0.358 | 0.529 | 0.341 | 1.12 | 1.07 | 0.611
10 | KILGRYYETSS [PAX2_Y72_G76S] | 0.568 | 0.428 | 0.502 | 0.435 | 0.541 | 0.447 | 0.65 | 0.424 | 0.344 | 0.595 | 0.453 | 0.613 | 0.51 | 0.89 | 0.726 | 1.62
11 | KKCTRYIDCDR [ASPA_Y64_L69R] | 0.832 | 0.402 | 0.445 | 0.417 | 0.542 | 0.406 | 1 | 0.323 | 0.37 | 0.691 | 0.461 | 0.72 | 0.427 | 0.974 | 0.633 | 0.839
12 | KKGMIYGGGGG [PSME1_Y249_T244K] | 0.467 | 0.3 | 0.363 | 0.407 | 0.359 | 0.365 | 0.495 | 0.388 | 0.466 | 0.487 | 0.381 | 0.447 | 0.442 | 0.766 | 0.632 | 0.666
13 | KLIMECLPFGS [JAK2_Y931_Y931C_YF] | 1.24 | 0.969 | 0.588 | 0.576 | 0.858 | 0.622 | 1.39 | 0.619 | 0.652 | 1.57 | 0.521 | 0.96 | 0.611 | 0.706 | 0.491 | 0.559
14 | KLIMEYLPYGS [JAK2_Y931] | 0.989 | 0.493 | 0.632 | 0.543 | 0.68 | 0.405 | 1.02 | 0.518 | 0.51 | 0.945 | 0.395 | 0.62 | 0.564 | 0.845 | 0.742 | 0.762
15 | KLVQLYGVCTK [BTK_Y461] | 0.848 | 1.33 | 1.43 | 0.439 | 0.532 | 0.439 | 0.887 | 1.25 | 1.91 | 0.773 | 0.892 | 0.686 | 1.25 | 1.07 | 0.981 | 0.882
16 | KLVRLYAVVTR [LYN_Y306] | 1.35 | 0.799 | 0.633 | 0.483 | 0.794 | 0.474 | 1.14 | 0.402 | 0.49 | 1.15 | 0.497 | 0.971 | 0.611 | 1.1 | 2.41 | 0.869
17 | KMKGDYYRYLA [YWHAG_Y130] | 0.647 | 1.45 | 1.36 | 8.74 | 5.52 | 0.393 | 0.747 | 0.594 | 0.816 | 2.55 | 2.1 | 0.705 | 0.73 | 1.76 | 1.75 | 1.53
18 | KNDSIYVVKGN [KIT_Y823_N822I] | 0.574 | 0.339 | 0.689 | 0.39 | 0.469 | 0.47 | 0.647 | 0.786 | 1.35 | 0.516 | 0.443 | 0.47 | 0.922 | 0.848 | 0.707 | 0.507
19 | KNNDGNIDFAE [MCFD2_Y135_Y135N_YF] | 1.07 | 0.504 | 0.673 | 0.447 | 0.683 | 0.525 | 1.26 | 0.558 | 0.539 | 1.21 | 0.589 | 1 | 0.462 | 0.912 | 0.834 | 0.6
20 | KQFWRYFPGNL [SLC25A4_Y112_A114P] | 0.904 | 0.625 | 0.521 | 0.444 | 0.676 | 0.469 | 1.02 | 0.35 | 0.524 | 0.919 | 0.402 | 0.695 | 0.496 | 1.18 | 0.863 | 0.739
21 | KRIKSYNQEND [RPGRIP1L_Y448_L447S] | 0.436 | 0.442 | 0.341 | 0.396 | 0.395 | 0.416 | 0.53 | 0.358 | 0.33 | 0.466 | 0.43 | 0.454 | 0.409 | 0.711 | 0.681 | 0.503
22 | KSSDVYVSFDF [SORL1_Y136_YF] | 1.21 | 1.73 | 1.11 | 3.78 | 2.81 | 4.79 | 1.22 | 5.77 | 3.02 | 0.983 | 3.34 | 0.935 | 4.3 | 0.891 | 0.715 | 0.497
23 | KSVVTYSPTTG [ITGB3BP_Y32_I30V] | 0.478 | 0.427 | 0.416 | 0.375 | 0.442 | 0.369 | 0.527 | 0.401 | 0.372 | 0.489 | 0.423 | 0.618 | 0.431 | 0.814 | 0.668 | 0.397
24 | KVDKECEVRVR [GHR_Y226_Y226C] | 0.739 | 0.513 | 0.569 | 0.502 | 0.556 | 0.478 | 0.832 | 0.421 | 0.414 | 0.821 | 0.355 | 0.638 | 0.446 | 0.889 | 0.842 | 0.575
25 | KVFRVYQGQQP [MUTYH_Y494] | 0.569 | 0.308 | 0.415 | 0.439 | 0.494 | 0.37 | 0.608 | 0.374 | 0.388 | 0.484 | 0.344 | 0.413 | 0.375 | 0.849 | 0.55 | 0.52
26 | KVGNEYVNKGQ [MYH7_Y410_T412N] | 0.581 | 0.337 | 0.553 | 0.492 | 0.391 | 0.404 | 0.541 | 0.412 | 0.327 | 0.424 | 0.373 | 0.422 | 0.428 | 2.24 | 0.706 | 0.444
27 | KVMANYVYKAG [MAML2_Y513_M514V] | 0.465 | 0.395 | 0.37 | 0.398 | 0.452 | 0.358 | 0.551 | 0.339 | 0.386 | 0.514 | 0.361 | 0.453 | 0.355 | 0.874 | 1.28 | 0.723
28 | KVNKIYFPDFI [LIG3_Y767_YF] | 0.799 | 0.427 | 0.399 | 1.24 | 1.26 | 0.4 | 0.855 | 0.455 | 0.543 | 0.712 | 0.473 | 0.566 | 0.478 | 0.946 | 0.844 | 0.692
29 | KVPELYEIHTE [BCR_Y554_K558T] | 1.19 | 0.94 | 0.945 | 0.578 | 0.68 | 0.74 | 0.984 | 0.629 | 0.745 | 0.827 | 0.508 | 0.712 | 0.546 | 0.969 | 0.696 | 0.525
